In the supplement of paper PMC9112550, “Optimization of the antimicrobial peptide Bac7 by deep mutational scanning” (BMC Biology, 2022):

Tested on: Escherichia coli TOP10
Test: shrunken log2 fold change of peptide-encoding DNA abundance (4.5 h post-induction vs induction); higher = less antimicrobial activity (less host growth inhibition)
Conditions: time post-induction: 4.5 h; library: site-saturation at positions 5, 18, 19, 20
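Note: peptides expressed intracellularly from a pBAD plasmid library in pooled LB shake-flask culture, induced with 0.3% L-arabinose, DNA abundance read by NGS, three biological replicates, DESeq2 with apeglm shrinkage.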

Sequence | shrunken log2 fold change
RRIRTRPPRLPRPRPRPFFIPRP | -0.518
RRIRDRPPRLPRPRPRPHYWPRP | -0.282
RRIRQRPPRLPRPRPRPFKNPRP | 0.0784
RRIRGRPPRLPRPRPRPHQVPRP | 0.078
RRIRWRPPRLPRPRPRPGPKPRP | 0.21
RRIRMRPPRLPRPRPRPSCHPRP | -0.0523
RRIRYRPPRLPRPRPRPDDLPRP | -0.0432
RRIRNRPPRLPRPRPRPALVPRP | 0.461
RRIRNRPPRLPRPRPRPGMSPRP | -0.238
RRIRERPPRLPRPRPRPWAFPRP | -0.165
RRIRKRPPRLPRPRPRPRDVPRP | 0.316
RRIRRRPPRLPRPRPRPWIYPRP | -0.118
RRIRIRPPRLPRPRPRPVQTPRP | -0.0646
RRIRSRPPRLPRPRPRPNAIPRP | 0.235
RRIRARPPRLPRPRPRPIIMPRP | -0.258
RRIRFRPPRLPRPRPRPVTMPRP | -0.295
RRIRDRPPRLPRPRPRPIPQPRP | -0.0127
RRIRLRPPRLPRPRPRPTAWPRP | 0.222
RRIRRRPPRLPRPRPRPIMWPRP | 0.121
RRIRDRPPRLPRPRPRPLFQPRP | 0.192
RRIRERPPRLPRPRPRPQVKPRP | -0.2
RRIRDRPPRLPRPRPRPARGPRP | 0.793
RRIRVRPPRLPRPRPRPVELPRP | 0.104
RRIRARPPRLPRPRPRPRWYPRP | -0.0331
RRIRGRPPRLPRPRPRPQIGPRP | 0.345

Sequence | shrunken log2 fold change
RRIRMRPPRLPRPRPRPLDHPRP | 0.103
RRIRVRPPRLPRPRPRPDQCPRP | 0.0862
RRIRSRPPRLPRPRPRPRSDPRP | 0.223
RRIRSRPPRLPRPRPRPCLQPRP | -0.197
RRIRMRPPRLPRPRPRPPYGPRP | 0.294
RRIRVRPPRLPRPRPRPGFLPRP | 0.101
RRIRDRPPRLPRPRPRPCKAPRP | -0.0139
RRIRPRPPRLPRPRPRPMQIPRP | 0.114
RRIRGRPPRLPRPRPRPGMIPRP | 0.309
RRIRTRPPRLPRPRPRPLYWPRP | -0.559
RRIRHRPPRLPRPRPRPCNYPRP | -0.084
RRIRRRPPRLPRPRPRPSKAPRP | -0.0721
RRIRARPPRLPRPRPRPPFHPRP | 0.386
RRIRERPPRLPRPRPRPKPQPRP | 0.309
RRIRRRPPRLPRPRPRPYRVPRP | -0.0172
RRIRSRPPRLPRPRPRPYAEPRP | -0.235
RRIRQRPPRLPRPRPRPKCYPRP | -0.234
RRIRNRPPRLPRPRPRPFCPPRP | -0.278
RRIRHRPPRLPRPRPRPYSHPRP | -0.129
RRIRIRPPRLPRPRPRPVAHPRP | 0.0168
RRIRWRPPRLPRPRPRPMKLPRP | -0.198
RRIRVRPPRLPRPRPRPRSSPRP | -0.244
RRIRVRPPRLPRPRPRPERCPRP | 0.187
RRIRNRPPRLPRPRPRPSANPRP | -0.379
RRIRFRPPRLPRPRPRPTFDPRP | -0.138

Sequence | shrunken log2 fold change
RRIRPRPPRLPRPRPRPQQYPRP | -0.108
RRIRCRPPRLPRPRPRPKVQPRP | 0.0235
RRIRWRPPRLPRPRPRPRLAPRP | 0.84
RRIRNRPPRLPRPRPRPFTFPRP | -0.628
RRIRYRPPRLPRPRPRPFVKPRP | -0.79
RRIRIRPPRLPRPRPRPMHSPRP | -0.0586
RRIRGRPPRLPRPRPRPCNSPRP | -0.0377
RRIRNRPPRLPRPRPRPLKHPRP | -0.239
RRIRPRPPRLPRPRPRPFDDPRP | -0.189
RRIRKRPPRLPRPRPRPLSYPRP | -0.0509
RRIRTRPPRLPRPRPRPLYRPRP | 0.0015
RRIRYRPPRLPRPRPRPELLPRP | -0.157
RRIRLRPPRLPRPRPRPWALPRP | 0.0419
RRIRLRPPRLPRPRPRPQGRPRP | -0.136
RRIRARPPRLPRPRPRPCCDPRP | 0.404
RRIRVRPPRLPRPRPRPHTMPRP | -0.252
RRIRIRPPRLPRPRPRPHDSPRP | -0.398
RRIRIRPPRLPRPRPRPQNRPRP | -0.386
RRIRARPPRLPRPRPRPLGYPRP | 0.223
RRIRTRPPRLPRPRPRPLQQPRP | -0.0185
RRIRVRPPRLPRPRPRPWSTPRP | 0.00921
RRIRRRPPRLPRPRPRPFFGPRP | 0.159
RRIRQRPPRLPRPRPRPQAEPRP | 4.1
RRIRRRPPRLPRPRPRPHKPPRP | -0.176
RRIRVRPPRLPRPRPRPPCYPRP | -0.356

Sequence | shrunken log2 fold change
RRIRSRPPRLPRPRPRPIWGPRP | 0.0936
RRIRVRPPRLPRPRPRPWTYPRP | -1.3
RRIRSRPPRLPRPRPRPWFCPRP | -0.439
RRIRQRPPRLPRPRPRPTVCPRP | 0.0669
RRIRDRPPRLPRPRPRPHGYPRP | 0.0237
RRIRFRPPRLPRPRPRPQSHPRP | -0.243
RRIRQRPPRLPRPRPRPCQKPRP | 0.0369
RRIRARPPRLPRPRPRPQMNPRP | -0.113
RRIRWRPPRLPRPRPRPGEIPRP | 0.889
RRIRERPPRLPRPRPRPNLSPRP | -0.15
RRIRMRPPRLPRPRPRPRACPRP | 0.593
RRIRHRPPRLPRPRPRPIQHPRP | -0.237
RRIRSRPPRLPRPRPRPLKTPRP | -0.0127
RRIRTRPPRLPRPRPRPDYQPRP | -0.0545
RRIRMRPPRLPRPRPRPTTCPRP | 0.0613
RRIRIRPPRLPRPRPRPLEIPRP | -0.0939
RRIRERPPRLPRPRPRPAHCPRP | 0.0518
RRIRIRPPRLPRPRPRPYPQPRP | -0.974
RRIRARPPRLPRPRPRPVFTPRP | -0.0343
RRIRERPPRLPRPRPRPRREPRP | 0.0467
RRIRWRPPRLPRPRPRPWRFPRP | 0.0309
RRIRARPPRLPRPRPRPPRVPRP | 0.875
RRIRERPPRLPRPRPRPYYAPRP | -0.72
RRIRKRPPRLPRPRPRPRCEPRP | 0.568
RRIRDRPPRLPRPRPRPIGSPRP | -0.693

Sequence | shrunken log2 fold change
RRIRQRPPRLPRPRPRPPVKPRP | 0.0851
RRIRARPPRLPRPRPRPWQLPRP | -0.106
RRIRLRPPRLPRPRPRPSVLPRP | -0.779
RRIRWRPPRLPRPRPRPLYSPRP | -0.247
RRIRRRPPRLPRPRPRPGLQPRP | -0.0644
RRIRHRPPRLPRPRPRPPTNPRP | 0.101
RRIRMRPPRLPRPRPRPSEHPRP | 0.0665
RRIRHRPPRLPRPRPRPGICPRP | -0.154
RRIRERPPRLPRPRPRPKRYPRP | -0.051
RRIRQRPPRLPRPRPRPMTQPRP | -0.0451
RRIRARPPRLPRPRPRPMCLPRP | 0.0284
RRIRCRPPRLPRPRPRPPFHPRP | -0.224
RRIRTRPPRLPRPRPRPGVKPRP | 0.14
RRIRPRPPRLPRPRPRPFIMPRP | -0.426
RRIRQRPPRLPRPRPRPRKGPRP | 0.353
RRIRPRPPRLPRPRPRPKKQPRP | -0.15
RRIRQRPPRLPRPRPRPEQCPRP | -0.0442
RRIRFRPPRLPRPRPRPLDWPRP | -0.119
RRIRARPPRLPRPRPRPMFRPRP | -0.217
RRIRARPPRLPRPRPRPMMGPRP | 0.082
RRIRRRPPRLPRPRPRPPQVPRP | 1.33
RRIRPRPPRLPRPRPRPVTIPRP | -0.344
RRIRVRPPRLPRPRPRPFIQPRP | -0.449
RRIRQRPPRLPRPRPRPFQEPRP | -0.0113
RRIRPRPPRLPRPRPRPTRKPRP | 0.483
